Measurements taken from patent US20050036947A1, “Target-specific activatable polymeric imaging agents” (General Electric Company, priority 2003, published 2005).
Where no end group is shown, it is not given here. [ ]: non-standard residue; d: D form. Hyp = O=C(O)[C@@H]1C[C@@H](O)CN1

Assays:
[1] = Cross-sectional diameter of the conjugated polymer; format: physicochemical; settings: highly conjugated
[2] = Relaxivity of the contrast agent (effect on T1 relaxation of water protons); format: physicochemical; settings: for relaxivity: globular vs elongated conformation
Text: When the carrier molecule is in an elongated conformation, the chelator entity, which provides the MR activity, is free to rotate about its attachment point to the main chain, allowing a […] T1 relaxation time of the surrounding water protons, which are the source of the MR signal. When the carrier molecule is in a globular or highly folded conformation, the paramagnetic ions on the chelator entities tumble at a slower rate (along with the entire molecule). […] A low relaxivity or long relaxation time is associated with an elongated molecule such as a highly substituted Gd-DTPA-PLL, in which the Gd can rotate rapidly, having a relaxivity of about 8 sec^−1 mM^−1. When the relaxivity of a peptide contrast agent was high, the uptake coefficient of such an agent was invariably low, evidently due to the absence of a reptation movement of the contrast agent molecule, resulting in the exclusion of the contrast agent from narrow passages. Thus, it is important to establish that the peptides being compared for optimum length are all of the same conformation.

[3] = test system: α-fetoprotein (“AFP”) receptor; settings: MCF-7 human breast cancer cells; cited from earlier work

| Substance | cross-sectional diameter [1] | relaxivity [2] | relaxivity in bulk water ([2]; highly conjugated (degree of conjugation about 90 percent or higher)) [mM⁻¹ s⁻¹] | bind to α-fetoprotein (“AFP”) receptor [3] |
| --- | --- | --- | --- | --- |
| Gd-DTPA-PLL | about 25 angstroms | about 8 sec^−1 mM^−1 | 6.8 to 7.8 | – |
| albumin | – | about 15 sec^−1 mM^−1 | – | – |
| EMTOVNOGQ (EMT[Hyp]VN[Hyp]GQ; also: cyclic, mode not given here) [cyclic peptide; O represents 4-hydroxyproline] | – | – | – | bind |
| EMTOVNOG (EMT[Hyp]VN[Hyp]G) [linear octapeptide; O represents 4-hydroxyproline] | – | – | – | bind |
